In general, stoichiometry N refers to the number of molecules, sites or subunits per partner or assembly.

What all share (assay): native gel or EMSA
(In general: Mobility shift assays separate free from complexed probe on a gel.)

Assay [1] addresses PRD-0038 S Foldon his (prefusion stabilized spike ectodomain) (sarbecovirus PRD-0038 (clade 3) | bacteriophage T4).
Assay [2] has as its target Rf1 S Foldon his (prefusion stabilized spike ectodomain) (sarbecovirus Rf1 (clade 2) | bacteriophage T4).
Assay [3] concerns the target Pang17 S Foldon his (prefusion stabilized spike ectodomain) (sarbecovirus Pang17 (clade 1b) | bacteriophage T4).
The target in assay [4] is SARS-CoV S Foldon his (prefusion stabilized spike ectodomain) (SARS-CoV (clade 1a) | bacteriophage T4).
Assay [5] has as its target Rs4081 S Foldon his (prefusion stabilized spike ectodomain) (sarbecovirus Rs4081 (clade 2) | bacteriophage T4).
Assay [6] deals with Btky72 S Foldon his (sarbecovirus BtKY72 (clade 3) | bacteriophage T4).
Assay [7] addresses Khosta-2 S Foldon his (prefusion stabilized spike ectodomain) (sarbecovirus Khosta-2 (clade 3) | bacteriophage T4).
In assay [8] the target is RshSTT200 S Foldon his (prefusion stabilized spike ectodomain) (sarbecovirus RshSTT200 (clade 1b) | bacteriophage T4).

“PRD-0038 S Foldon his (prefusion stabilized spike ectodomain) (domain or fragment)” returned a stoichiometry N in assay [1] of 3.
In assay [2], “Rf1 S Foldon his (prefusion stabilized spike ectodomain) (domain or fragment)” came in with a stoichiometry N of 3.
In turn, “Pang17 S Foldon his (prefusion stabilized spike ectodomain) (domain or fragment)” showed a stoichiometry N in assay [3] of 3.
“SARS-CoV S Foldon his (prefusion stabilized spike ectodomain) (domain or fragment)” displayed a stoichiometry N in assay [4] of 3.
As to “Rs4081 S Foldon his (prefusion stabilized spike ectodomain) (domain or fragment)”, the stoichiometry N in assay [5] was 3.
In assay [6], “Btky72 S Foldon his (domain or fragment)” displayed a stoichiometry N of 3.
On to “Khosta-2 S Foldon his (prefusion stabilized spike ectodomain) (domain or fragment)”, for which the stoichiometry N in assay [7] was 3.
For “RshSTT200 S Foldon his (prefusion stabilized spike ectodomain) (domain or fragment)”, in assay [8], the stoichiometry N stood at 3.

(Values after article PMC11068555.)
